Source: patent US20100203083A1

Key:
[1] = molecular target: purified αVβ3 integrin (CHEMICON) (UniProt P06756)
[2] = molecular target: AAV-amyloid-453-587 (AAV-2; human) (UniProt P03135)

Row | Substance | fold increase of binding activity against RGD4C 453 [1] [fold] | fold higher affinity against the I-587-insertion mutant (AAV-amyloid-587) [2] [fold]
1 | AAV2 RGD4C 453 A2 (from UniProt P03135 1-453; P03135 454-735) (other; other documents disagree on this pair) | 50 | –
2 | anti-β-amyloid mAb 6E10 (CHEMICON) (antibody) | – | > 2
